These are literature values, as cited in publication PMC2660313.

For this data set, the target named is Dystrophin WW domain+EF-hand (Drosophila melanogaster) (UniProt Q9VDW6).
Sequence of Dystrophin WW domain+EF-hand (Drosophila melanogaster) (Q9VDW6 2840-3106): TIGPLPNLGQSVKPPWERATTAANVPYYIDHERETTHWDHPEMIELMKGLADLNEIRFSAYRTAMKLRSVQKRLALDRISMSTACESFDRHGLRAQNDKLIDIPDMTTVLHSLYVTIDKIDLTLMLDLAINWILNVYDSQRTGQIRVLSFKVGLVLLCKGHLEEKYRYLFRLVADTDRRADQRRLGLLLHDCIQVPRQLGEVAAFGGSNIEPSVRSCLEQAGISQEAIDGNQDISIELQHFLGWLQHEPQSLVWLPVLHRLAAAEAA

One may read the Kd as the equilibrium constant for the complex coming apart. For “p53 peptide (negative control) (from UniProt P04637)”, the equilibrium dissociation constant (Kd) is 248 µM.
